{
  "source": "patent US20220411516A1",
  "about": "(Amgen, published 2022)",
  "molecular_target": "T1, EGFRvIII (Epidermal Growth Factor Receptor Variant III) (human, UniProt P00533 298-1210)",
  "T1 construct": "also called Human EFGRvIII; de2-7EGFR",
  "experiment": "IHC staining, titration of the primary antibody (5.5, 2.75, 1.375 µg/ml)",
  "data": [
    {"binder": "EGFRvIII antibody 1 (antibody, mouse IgG1, kappa, V domains shown, also called first antibody; primary antibody) VH: QVQLVESGGGVVQPGRSLRLSCAASGFTFSSYGMHWVRQAPGKGLEWVAVIWYDGSNKYYVDSVKGRFTISRDNSKNTLYLQMNSLRAEDTAVYYCARDGWQQLAPFDYWGQGTLVTVSA VL: not shown", "values": [
      {"measurement": "binding result", "result": "binds"}
    ]}
  ]
}
